Test results reported in US20260226096A1, “MODIFIED PROTEINS OR PEPTIDES FOR COVALENT TARGETING” (YEDA RESEARCH AND DEVELOPMENT CO. LTD., priority 2023, published 2026).
Non-standard residues stand in square brackets, D forms with d. Residues, ends and D or L forms follow the SMILES beside them. Primed or numbered codes have the meaning given here. No end group written: not given here. *: point of attachment. Pra′ = its azide, alkyne or alkene has reacted where a group follows in round brackets; methacrylate = methacrylate-modified cysteine (mC); pT = C[C@@H](OP(=O)(O)O)[C@H](N)C(=O)O; mC = methacrylate-modified cysteine; pS = N[C@@H](COP(=O)(O)O)C(=O)O; BODIPY = not defined here; Dab = NCC[C@H](N)C(=O)O; X1 = C=C(C*)C(=O)OCC; ClAc = O=C(CCl)*

Columns and labels:
[1] = Differential scanning fluorimetry for Im-E9 complexes; type: physicochemical; settings: SYPRO Orange, protein 40 μM
Experimental: SYPRO Orange (X5000 stock) was diluted 200-fold in buffer, and from this stock 13 μl were added to each sample, diluting the protein to 40 μM. Each sample were split into 3 technical replicates and heated in a thermal cycler over 1.5 hours to 95° C. while measuring the fluorescence.

14-3-3σ [2] = target: T1, 14-3-3σ (Homo sapiens, UniProt P31947); assay: Fluorescence polarization competition/binding experiment; settings: 14-3-3σ 0.25 μM, fluorescent peptide 5 nM, 27° C., immediately after mixing
T1 sequence (P31947 with tags, fused parts or gaps): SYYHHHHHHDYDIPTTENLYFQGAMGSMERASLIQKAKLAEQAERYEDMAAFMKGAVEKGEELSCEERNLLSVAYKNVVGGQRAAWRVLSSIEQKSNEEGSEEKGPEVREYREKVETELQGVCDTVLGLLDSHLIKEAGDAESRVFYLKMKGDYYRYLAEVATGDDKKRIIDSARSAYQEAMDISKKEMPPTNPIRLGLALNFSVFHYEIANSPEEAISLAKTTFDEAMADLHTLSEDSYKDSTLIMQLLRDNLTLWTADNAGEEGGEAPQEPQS

[3] = Peptide stability in buffer and intrinsic reactivity with lysine and cysteine; type: physicochemical; settings: room temperature, timescale of days
Experimental: The intrinsic reactivity and stability of the active peptides with their labeling rates were compared). Their stability was tested in buffer and in the presence of lysine and cysteine at room temperature. […] The reactivity towards cysteine was much higher—the peptides reacted with cysteine to generate both Michael adducts as well as substitution products in which the thiol peptide is released. Peptides SEQ ID 3, SEQ ID 8 and SEQ ID 11 were more than >50% reacted within 2.5 hours.
The LS/MS runs for peptides were performed using the same instrument with a C18-CSH column (300 Å, 1.7 μm, […]) using a gradient starting from 1% B for 1 minute, rising to 95% B in 4.5 minutes, holding at 95% B for 0.75 minutes, then decreasing to 1% B in 0.75 minutes and holding at 1% B for 1 minute. MS data were collected at a range of 80-2500 m/z, using identical conditions for ionization as with the protein.

14-3-3σ [4] = target: T1, 14-3-3σ; assay: Covalent labeling of 14-3-3σ by peptides, intact protein LC/MS; settings: for labeling of 14-3-3σ within 5 hours / labeling of 14-3-3σ after 48 hours / covalent labeling of 14-3-3σ with the expected adduct mass: 14-3-3σ 2 μM; for labeling of 14-3-3σ within 5 hours: time course; for labeling of 14-3-3σ after 48 hours: room temperature; for covalent labeling of 14-3-3σ with the expected adduct mass: peptide 200 μM, 4° C. overnight
14-3-3 isoforms = assay: Binding to 14-3-3 isoforms using LC-MS qTOF; settings: protein:peptide 1:5, overnight, 4° C.
Experimental: The 14-3-3 isoforms were buffer-exchanged into complexation buffer (20 mM HEPES pH 7.5, 100 mM NaCl, 10 mM MgCl2) and mixed with the peptides (3/8) in a 1:5 molar stoichiometry (protein:peptide) at a final concentration of 10 mg/mL. The complexes were buffer-exchanged into milliQ+0.1% formic acid after overnight incubation at 4° C.
UPLC-QToF-MS analysis was performed on a Waters (Milford, MA, USA) Acquity I-Class UPLC system coupled to a Waters Xevo G2 quadrupole time-of-flight (QToF) mass spectrometer. The devices were controlled by MassLynx Software (version 4.1, Waters, MA, USA). Full scan in positive electrospray ionization (ESI+) mode was used as MS acquisition mode with an acquisition range from 200-2000 m/z. […] The samples concentration were 0.01-0.1 mg/mL, and the injection volume was 1 μL. Deconvolution was performed by the MaxEnt1 option of the MassLynx software. Errors were calculated using the MaxEnt Errors option.

[5] = target: T2, human 14-3-3σ with an N-terminal His6-tag (SEQ ID 28) (human); assay: 2 µM 14-3-3σ with 5 µM peptide, 48 hours at room temperature
T2 chain: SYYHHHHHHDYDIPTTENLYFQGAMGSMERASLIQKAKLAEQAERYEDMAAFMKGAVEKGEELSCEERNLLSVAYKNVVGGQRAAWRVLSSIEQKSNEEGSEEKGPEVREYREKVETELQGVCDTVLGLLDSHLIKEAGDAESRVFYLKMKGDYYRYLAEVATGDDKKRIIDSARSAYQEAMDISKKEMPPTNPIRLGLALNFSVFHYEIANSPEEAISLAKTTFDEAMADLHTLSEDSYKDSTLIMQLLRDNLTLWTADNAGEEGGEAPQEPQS

[6] = target: T2, human 14-3-3σ with an N-terminal …; assay: time course, intact protein LC/MS; 5 µM peptide, 2 µM 14-3-3σ
[7] = target: T2, human 14-3-3σ with an N-terminal …; assay: intact protein LC/MS; 200 µM peptide, 2 µM 14-3-3σ, 4° C. overnight
[8] = target: T2, human 14-3-3σ with an N-terminal …; assay: not told how it was measured; probe of the fluorescence polarization experiment

Molecule: Im9: immunity protein, inhibitory partner of the E9 nuclease, in its free (unmodified) form
- unfolding (melting) temperature [1]: around 50 °C

Molecule: Ac-RAHpSSPAmCLQ-NH2 (Ac-RAH[pS]SPAC(methacrylate)LQ-NH2) [SEQ ID 10]
- displacement of the fluorescent binder at 5 μM (14-3-3σ [2]; peptide 5 μM): had sufficient affinity to displace the fluorescent binder

Molecule: C=C(CSC[C@H](NC(=O)[C@H](COP(=O)(O)O)NC(=O)[C@H](C)NC(=O)[C@H](CO)NC(=O)[C@H](CCCNC(=N)N)NC(C)=O)C(=O)N1CCC[C@H]1C(=O)N[C@@H](CO)C(=O)N[C@@H](CC(C)C)C(N)=O)C(=O)OCC [SEQ ID 3, Ac-RSApSmCPSL-NH2] (Ac-RSA[pS]C(X1)PSL-NH2)
- stability in buffer over days [3]: remained unmodified even after 3 days
- labeling of 14-3-3σ within 5 hours (14-3-3σ [4]; peptide 5 μM, 25° C.): 60%
- labeling of 14-3-3σ after 48 hours (14-3-3σ [4]; peptide 5 μM): ~ 75%
- covalent labeling of 14-3-3σ with the expected adduct mass (14-3-3σ [4]): 51%

Molecule: Ac-RAHpSSPASLX-NH2 (Ac-RAH[pS]SPASL[Dab](ClAc)-NH2) [SEQ ID 12, chloroacetamide warhead peptide that reacts with 14-3-3σ via Cys38, used as a positive control]
- labeling of 14-3-3 isoforms (14-3-3 isoforms): labeled only the sigma isoform

Molecule: C=C(CSC[C@H](NC(=O)[C@H](CO)NC(=O)[C@H](C)NC(=O)[C@@H]1CCCN1C(=O)[C@H](CO)NC(=O)[C@H](COP(=O)(O)O)NC(=O)[C@H](Cc1c[nH]cn1)NC(=O)[C@H](C)NC(=O)[C@H](CCCNC(=N)N)NC(C)=O)C(=O)N[C@@H](CCC(N)=O)C(N)=O)C(=O)OCC [SEQ ID 11, Ac-RAHpSSPASmCQ-NH2] (Ac-RAH[pS]SPASC(X1)Q-NH2)
- stability in buffer over days [3]: formed a new product with the same mass as the original peptide
- labeling of 14-3-3σ after 48 hours (14-3-3σ [4]; peptide 5 μM): 100%
- free (non-labelled) 14-3-3σ remaining within 2.5 hours (14-3-3σ [4]; peptide 5 μM, 25° C.): less than 5%
- covalent labeling of 14-3-3σ with the expected adduct mass (14-3-3σ [4]): 11%

Molecule: Ac-SHpTLmCS-NH2 (Ac-SH[pT]LC(methacrylate)S-NH2) [SEQ ID 2]
- displacement of the fluorescent binder at 200 μM (14-3-3σ [2]; peptide 200 μM): all peptides except peptide SEQ ID 2 displaced the binder

Molecule: C=C(CSC[C@H](NC(=O)[C@H](COP(=O)(O)O)NC(=O)[C@H](Cc1c[nH]cn1)NC(=O)[C@H](C)NC(=O)[C@H](CCCNC(=N)N)NC(C)=O)C(=O)N1CCC[C@H]1C(=O)N[C@@H](C)C(=O)N[C@@H](CO)C(=O)N[C@@H](CC(C)C)C(=O)N[C@@H](CCC(N)=O)C(N)=O)C(=O)OCC [SEQ ID 8, Ac-RAHpSmCPASLQ-NH2] (Ac-RAH[pS]C(X1)PASLQ-NH2)
- stability in buffer over days [3]: formed a new product with the same mass as the original peptide
- labeling of 14-3-3σ within 5 hours (14-3-3σ [4]; peptide 5 μM, 25° C.): 80%
- labeling of 14-3-3σ after 48 hours (14-3-3σ [4]; peptide 5 μM): 90%
- covalent labeling of 14-3-3σ with the expected adduct mass (14-3-3σ [4]): 35%

B1: Peptide SEQ ID 3, Ac-RSApSmCPSL-NH2 (peptide)
peptide: Ac-RSA[pS][mC]PSL-NH2
- covalent labeling (%) [5]: ~75%
- fold increase of the rate of labeling at 37° C. against 25° C. [6]: ~4 fold
- covalent labeling (%) [7]: 51%

B2: BODIPY-labeled noncovalent binder for 14-3-3σ (SEQ ID 38) (peptide)
peptide: [Pra′](BODIPY)RAH[pS]PASL[Dab]
modifications: not fully specified (N-terminus, C-terminus); reading uncertain
- Kd [8]: ~0.1 µM

B3: Peptide SEQ ID 1, Ac-SHpTmCPS-NH2 (peptide)
peptide: Ac-SH[pT][mC]PS-NH2
- covalent labeling (%) [7]: ~10%

B4: Peptide SEQ ID 11, Ac-RAHpSSPASmCQ-NH2 (peptide)
peptide: Ac-RAH[pS]SPASC(methacrylate)Q-NH2
- covalent labeling (%) [5]: 100%
- covalent labeling (%) [7]: 11%

B5: Peptide SEQ ID 8, Ac-RAHpSmCPASLQ-NH2 (peptide)
peptide: Ac-RAH[pS][mC]PASLQ-NH2
- covalent labeling (%) [5]: 90%
- fold increase of the rate of labeling at 37° C. against 25° C. [6]: ~4 fold
- covalent labeling (%) [7]: 35%
